Data on four molecules can be found in patent US20220204611A1 (Amgen, published 2022).

The target of experiment [1] is T1, human TREM2 on cells (human, UniProt Q9NZC2 19-230).
T1 sequence: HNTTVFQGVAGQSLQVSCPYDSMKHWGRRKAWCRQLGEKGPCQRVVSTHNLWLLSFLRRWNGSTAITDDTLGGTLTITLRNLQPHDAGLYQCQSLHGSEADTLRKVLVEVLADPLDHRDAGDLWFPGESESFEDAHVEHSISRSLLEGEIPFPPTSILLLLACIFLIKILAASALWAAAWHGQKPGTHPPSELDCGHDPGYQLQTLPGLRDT
Put plainly: cell-based or functional assay.

In experiment [2] the target is T1, human TREM2 on cells. Kind of experiment: cell-based or functional assay. This is another data set of the same source.
In experiment [3] the target is T2, recombinant soluble human TREM2 protein (human TREM2 ECD-FlagHis) (human, UniProt Q9NZC2 19-174).
T2 sequence: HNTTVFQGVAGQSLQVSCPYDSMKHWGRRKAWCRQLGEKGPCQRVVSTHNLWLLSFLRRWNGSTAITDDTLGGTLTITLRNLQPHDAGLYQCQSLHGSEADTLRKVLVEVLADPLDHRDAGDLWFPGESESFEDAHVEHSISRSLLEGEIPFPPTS
Put plainly: Octet BLI binning; competitor: load Ab 5E3. The method, boiled down: (§1)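 Anti-human Fc capture of load Ab (5 μg/mL, 2 min); block 100 μg/mL irrelevant hIgG2, 5 min; sandwich Ab 5 μg/mL, 5 min. Buffer Tris pH 7.6/Triton X-100/NaCl/CaCl₂/BSA, 25° C. Binding of sandwich Ab = different epitope bin.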

Experiment [4] addresses T2, recombinant soluble human TREM2 protein …. Put plainly: Octet BLI binning; competitor: load Ab 6E7. The method, boiled down:
as §1
(BLI is a label-free optical method that tracks binding on a fibre tip over time.)

For experiment [5] the target is unchanged. Kind of experiment: Octet BLI binning; competitor: load Ab 10E3. The procedure, abridged: as §1
For experiment [6] the target is unchanged. Put plainly: Octet BLI binning; competitor: load Ab 24G6. The method, boiled down: as §1
For experiment [7] the target is unchanged. Kind of experiment: Octet BLI binning; competitor: load Ab 26F2. The procedure, abridged: as §1
The target is the same in experiment [8]. Put plainly: Octet BLI binning; competitor: load Ab 32E3. The method, boiled down:
as §1

Experiment [9] shares this target. Kind of experiment: Octet BLI binning; competitor: load Ab 24A10. The procedure, abridged: as §1
Experiment [10] has the same target. Kind of experiment: Octet BLI binning; competitor: load Ab 25F12. The procedure, abridged:
as §1

Experiment [11] shares this target. Kind of experiment: Octet BLI binning; competitor: load Ab 26A10. The procedure, abridged: as §1
Experiment [12] has the same target. Put plainly: Octet BLI binning; competitor: load Ab 33B12. The procedure, abridged:
as §1

The target of experiment [13] is T3, soluble human TREM2 protein (TREM2 ECD-huIgG1 Fc fusion protein) (human, UniProt Q9NZC2 19-174, biotinylated).
T3 construct: also called biotinylated soluble human TREM2 protein
T3 sequence: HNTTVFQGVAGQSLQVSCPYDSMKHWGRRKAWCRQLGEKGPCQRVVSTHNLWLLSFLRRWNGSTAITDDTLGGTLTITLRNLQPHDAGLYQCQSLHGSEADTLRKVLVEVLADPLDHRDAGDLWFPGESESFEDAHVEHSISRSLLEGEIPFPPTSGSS
Kind of experiment: ELISA, hybridoma supernatant on captured biotinylated TREM2 ECD-Fc. A general note: An ELISA detects its analyte on a solid surface through an enzyme-linked reagent.

B1: 5E3 (antibody, human IgG2, V domains shown)
VH: QVQLVQSGAEVKKPGASVKVSCKASGYTFTGYYIHWVRQAPGLGLEWMGWINPYSGGTTSAQKFQGRVTMTRDTSISSAYMELSRLRSDDTAVYYCARDGGYLALYGTDVWGQGTTVTVSS
VL: DIQMTQSPSSLSASVGDRVTITCRASQGISNYLAWFQQKPGKAPKSLIYAASSLQSGVPSKFSGSGSGTDFTLTISSLQPEDFATYYCQQYSTYPFTFGPGTKVDIK
notes: human IgG2 from hybridoma
Consider B1, for which the “pSyk EC50” value with human TREM2 on cells [1] came out at 0.24 nM. The “Emax (% maximum activation compared to RnD antibody)” value with human TREM2 on cells [2] came to 195%. The “pSyk EC50, differentiated THP-1 cells” value with human TREM2 on cells [2] was 0.594 nM. The sandwich binding signal in experiment [3] is -0.165; in [4], 0.514; in experiment [5], 0.222; in experiment [6] it was 0.328; in experiment [7] it was -0.045; in [8] it was 0.338. The sandwich binding signal in experiment [9] was 0.441; in experiment [10], 0.38; in [11], -0.052; in [12], -0.055. In addition, the “OD 450” value in experiment [13] stood at 3.88 OD450.

B2: 10E3 (antibody, human IgG2, V domains shown)
VH: EVQLVQSGAEVKKPGESLMISCKGSGYSFTNYWIGWVRQMPGKGLEWMGIIYPGDSDTRYSPSFQGQVTISADKSISTAYLQWSSLKASDTAMYFCARRRQGIWGDALDIWGQGTLVTVSS
VL: EIVMTQSPATLSVSPGERATLSCRASQSVSSNLAWFQQKPGQAPRLLIYGASTRATGIPARFSVSGSGTEFTLTISSLQSEDFAFYYCLQDNNWPPTFGPGTKVDIK
notes: human IgG2 from hybridoma
With B2, in the experiment with human TREM2 on cells [1], the “pSyk EC50” value is 0.4 nM. Further, in the experiment with human TREM2 on cells [2], the “Emax (% maximum activation compared to RnD antibody)” value came to 456%. Moreover, the “pSyk EC50, differentiated THP-1 cells” value in the experiment with human TREM2 on cells [2] was 1 nM. The sandwich binding signal is 0.415 in [3]; -0.012 in [4]; -0.024 in experiment [5]; 0.317 in experiment [6]; 0.354 in experiment [7]; 0.007 in experiment [8]. Also, the sandwich binding signal came out at 0.38 in [9], 0.273 in experiment [10], 0.367 in [11] and 0.303 in experiment [12]. Moreover, in experiment [13], the “OD 450” value was found to be 0.55 OD450.

B3: 13E7 (antibody, human IgG2, V domains shown)
VH: EVQLVQSGAEVKKPGESLMISCKGSGYSFTSYWIGWVRQMPGKGLEWMGIIYPGDSDTRYSPSFQGQVTISADKSISTAYLQWSSLKASDTAMYFCARRRQGIWGDALDFWGQGTLVTVSS
VL: EIVMTQSPATLSVSPGERATLSCRASQSVSSNLAWFQQKPGQAPRLLIYGASTRATGIPARFSVSGSGTEFTLTISSLQSEDFAVYYCLQDNNWPPTFGPGTKVDIK
notes: human IgG2 from hybridoma
For the molecule B3, the “pSyk EC50” value with human TREM2 on cells [1] is 0.4 nM. Further, the “Emax (% maximum activation compared to RnD antibody)” value with human TREM2 on cells [2] was 460%. Besides, the “pSyk EC50, differentiated THP-1 cells” value with human TREM2 on cells [2] is 0.462 nM. The sandwich binding signal in experiment [3] was 0.428; in experiment [4], -0.01; in experiment [5] it was -0.019; in experiment [6], 0.338; in experiment [7], 0.363; in experiment [8], 0.01. In addition, the sandwich binding signal stood at 0.383 in experiment [9], 0.278 in experiment [10], 0.371 in experiment [11] and 0.303 in experiment [12]. Besides, the “OD 450” value in experiment [13] came to 0.73 OD450.

B4: 6E7 (antibody, human IgG2, V domains shown)
VH: EVQLVQSGAEVKKPGESLKISCKGSGYSFTSYWIAWVRQMPGKGLEWMGIIYPGDSDTRYSPSFQGQVTISADKSISTAYLQWSSLKASDTAMYFCARQRTFYYDSSDYFDYWGQGTLVTVSS
VL: DIQMTQSPSSVSASVGDRVTITCRASQGISSWLAWYQQKPGKAPKLLIYAASSLQNGVPSRFSGSGSGTDFTLTISSLQPEDFATYFCQQADSFPRTFGQGTKLEIK
notes: human IgG2 from hybridoma
Consider B4, for which the “pSyk EC50” value with human TREM2 on cells [1] amounted to 0.29 nM. Moreover, the “Emax (% maximum activation compared to RnD antibody)” value with human TREM2 on cells [2] worked out at 273%. The “pSyk EC50, differentiated THP-1 cells” value with human TREM2 on cells [2] amounted to 0.899 nM. The sandwich binding signal in [3] came to 0.565; in [4] it was 0.009; in [5], 0.051; in [6], 0.412; in experiment [7], 0.506; in experiment [8] it was 0.079. The sandwich binding signal was 0.499 in experiment [9], 0.371 in [10], 0.475 in [11] and 0.434 in [12]. Moreover, the “OD 450” value in [13] was 3.17 OD450.
